Changes are numbered by the printed parent chain.
B1: 3B5 rabbit-human chimeric anti-CD40 antibody (antibody, V domains shown)
VH: QSVEESGGRLITPGTPLTLTCTVSGFSLSTYAVSWVRQAPGKGLEWIGIIDSGGGTAYASWVKGRFTISKTSTTVDLKITSPTTEDTATYFCARGVTFFGLWGPGTLVTVSS
VL: DIVMTQTPASVEAAVGGTVTIKCQASQSISNYLSWYQQKPGQPPKLLIYRASDLASGVPSRFKGSGSGTEFTLTISDLECADAATYYCQAYYYSGGGSYDYAFGGGTEVVVK
notes: tested as cell culture supernatant
B2: 4A7 rabbit-human chimeric anti-CD40 antibody (antibody, V domains shown)
VH: QSVEESGGRLVTPGTPLTLTCTVSGFSLSTYAMSWVRQAPGKGLEWIGIIDGGGFAVYANWAKGRFTISKASTTVDLKLPSPTTEDTATYFCARGVTFFNLWGPGTLVTVSS
VL: B1 VL with G17D, N31S, Y32A, S34A, D53T, A55E, A90S, G95S
notes: as for B1
B3: 2E3 rabbit-human chimeric anti-CD40 antibody (antibody, V domains shown)
VH: QSVEESGGRLVTPGTPLTLTCTVSGFSLSTYAMSWVRQAPGKGLEWIGIIDGSSFTVYANWAKGRFTISKTSTTVDLKMTSLTASDTATYFCARGATFFGLWGPGTLVTVSS
VL: DVVMTQTPASVSAAVGGTVTIKCQASQSISGVLAWYQQKPGQPPKLLIYRAADLASGVPSRFKGSGSGTEFTLTINDLECDDAATYYCQSYYYSNSGSYSYAFGGGTEVVVK
notes: as for B1
B4: 3B5, humanized anti-CD40 mAb, IgG1 isotype (antibody, V domains shown)
VH: EVQLVESGGGLIQPGGSLRLSCAVSGFSLSTYAVSWVRQAPGKGLEWVGIIDSGGGTAYASWVKGRFTISRDNSKNTLYLQMNSLRAEDTAVYYCARGVTFFGLWGQGTLVTVSS
VL: DIVMTQSPSTLSASVGDRVTITCQASQSISNYLSWYQQKPGKAPKLLIYRASDLASGVPSRFSGSGSGTEFTLTISSLQPDDFATYYCQAYYYSGGGSYDYAFGGGTKVEIK
notes: also called HZD_3B5; 3B5 antibody
B5: 3E12 rabbit-human chimeric anti-CD40 antibody (antibody, V domains shown)
VH: QSVKESEGGLFKPTDTLTLTCTVSGFSFSNYRMIWVRQAPGNGLEWIGVIDRNDNTYYATWAKSRSTITRNTNLNTVTLKMTSLTAADTATYFCARDTDYTTGGIWGPGTLVTVSS
VL: DIVMTQTPASVSAAVGGTVTIKCQASQNIGDNLAWHQQKPGQPPKLLIYGASTLASGVPSRFKGSGSRTEYTLTISDLECADAATYYCQSNYYSTSSSYYNSFGGGTEVVVK
notes: as for B1
B6: 4B7 rabbit-human chimeric anti-CD40 antibody (antibody, V domains shown)
VH: B5 VH with S27T, F28L, M33V, V49G, N53S, D54A, N55V, T56A, T60S, T102S
VL: DIVMTQTPSSVSAAVGGTVTIKCQASQNIGGNLAWYQQKPGQPPKLLIYGSSTLESGVPSRFSGSGSGTEYTLTISDLQCADAATYYCQSNYWSRSSSYVNSFGGGTEVVVK
notes: as for B1

Experiments:
[1] = target: T1, purified recombinant human CD40 protein (human, UniProt P25942 21-193); experiment: ELISA on coated recombinant human CD40; chimeric antibody supernatant
T1 construct: also called recombinant CD40
T1 sequence (P25942 21-193 limits assumed): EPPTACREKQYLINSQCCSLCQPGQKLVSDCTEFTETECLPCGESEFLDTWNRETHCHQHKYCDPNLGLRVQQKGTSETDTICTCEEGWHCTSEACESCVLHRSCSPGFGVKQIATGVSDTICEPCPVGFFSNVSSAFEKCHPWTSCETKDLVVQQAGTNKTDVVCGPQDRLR
Procedure: ELISA plate was coated with purified recombinant CD40 protein in coating buffer at lug/ml overnight. After washed for 3 times, the plate was blocked with 1% BSA, and then cell culture supernatants containing rabbit-human chimeric CD40 antibodies were added to the plate. For detection of the antibody binding to CD40 protein, goat anti-human Fc polyclonal antibody conjugated to alkaline phosphatase was used.

[2] = target: CD40 on HEKBlue CD40L reporter cells (UniProt P25942 21-277, limits assumed); experiment: cell-based or functional assay
Chain of CD40 on HEKBlue CD40L reporter cells (P25942 21-277 limits assumed): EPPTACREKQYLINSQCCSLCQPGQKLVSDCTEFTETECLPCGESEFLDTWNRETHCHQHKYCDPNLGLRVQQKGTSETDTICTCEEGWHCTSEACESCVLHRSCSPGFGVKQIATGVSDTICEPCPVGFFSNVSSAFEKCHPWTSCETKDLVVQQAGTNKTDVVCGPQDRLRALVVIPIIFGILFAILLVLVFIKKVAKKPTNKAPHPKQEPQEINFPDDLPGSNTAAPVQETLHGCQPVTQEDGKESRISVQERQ

[3] = target: T2, cell surface human CD40 on HEK-CD40 cells (human, UniProt P25942 21-277); experiment: flow cytometry, titration on HEK-CD40 cells, CD40 MFI, anti-human IgG secondary antibody
T2 construct: whole, on cells; also called cell surface CD40
T2 sequence (P25942 21-277): as the sequence (P25942 21-277 limits assumed) above
Procedure: HEK-CD40 were collected and plated at 10⁵ cells per well in 96-well round bottom plate in FACS buffer. Serial dilutions of antibodies (Control IgG1, CP870,893, APX005m and 3B5) in 100 ul were incubated with the HEK-CD40 cells for 60 min at 4° C. Cells were washed 3 times with 200 ul FACS buffer. Cell-bound antibodies were detected using an APC-conjugated secondary antibody specific to human IgG heavy and light chain. After incubating 30 min with secondary antibody, HEK-CD40 cells were washed 3 times with 200 ul FACS buffer and resuspended in 200 ul FACS with 1 ug/ml DAPI. Flow cytometric analyses were performed using Attune N×T flow cytometer (ThermoFisher Scientific, Waltham, Mass.). After gating on FCS-SSC parameters to exclude debris and selectively gating DAPI negative cells on DAPI-SSC parameters to exclude dead cells, the geometric mean fluorescence intensity (MFI) of antibodies was determined using FlowJo v10 (BD Bioscience, San Jose, Calif.). Dose-response curves were generated and EC50s calculated using GraphPad Prism 8 (GraphPad Software, San Diego, Calif.).

[4] = target: T1, purified recombinant human CD40 protein; experiment: Octet (BLI), recombinant CD40

Row | Binder | OD405 [1] [OD405] | other results
1 | B1 | 1.48 | 
2 | B2 | 1.65 | 
3 | B3 | 1.62 | 
4 | B4 |  | IC50 (read off the curve) [2]: ~0.06 µg/mL; EC50 [3]: 0.69 µg/mL; Kd [4]: < 1 pM; koff [4]: < 1e-07 s⁻¹; kon [4]: 1.06e+06 M⁻¹ s⁻¹
5 | B5 | 1.39 | 
6 | B6 | 1.72 | 
